Data from PMC2606670.

Legend:
[1] = biological target: GST-ctβ382-401 Y390F (mouse | not stated) (UniProt P09690); experiment: far-Western, overlay or dot blot
[2] = biological target: acetylcholine receptor containing beta subunit phosphorylated at Y390 (mouse (endogenous in myotubes)) (UniProt P04756); experiment: co-IP
Sequence of UniProt P04756 (P04756 21-457, chain 1 of 4): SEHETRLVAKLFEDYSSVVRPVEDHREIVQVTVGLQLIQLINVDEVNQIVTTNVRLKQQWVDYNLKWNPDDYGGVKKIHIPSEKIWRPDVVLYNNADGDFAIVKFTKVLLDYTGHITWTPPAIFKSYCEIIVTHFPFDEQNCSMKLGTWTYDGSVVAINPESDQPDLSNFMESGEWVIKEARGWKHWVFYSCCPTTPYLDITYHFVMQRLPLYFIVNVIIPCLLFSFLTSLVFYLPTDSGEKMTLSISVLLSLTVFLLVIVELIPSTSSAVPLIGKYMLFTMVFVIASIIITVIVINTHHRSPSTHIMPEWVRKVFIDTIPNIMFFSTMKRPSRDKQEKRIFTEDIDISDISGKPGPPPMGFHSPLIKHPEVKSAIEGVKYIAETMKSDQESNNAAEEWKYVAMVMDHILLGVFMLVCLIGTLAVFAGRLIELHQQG
Sequence of UniProt P04756 (P09690 24-501, chain 2 of 4, further chain): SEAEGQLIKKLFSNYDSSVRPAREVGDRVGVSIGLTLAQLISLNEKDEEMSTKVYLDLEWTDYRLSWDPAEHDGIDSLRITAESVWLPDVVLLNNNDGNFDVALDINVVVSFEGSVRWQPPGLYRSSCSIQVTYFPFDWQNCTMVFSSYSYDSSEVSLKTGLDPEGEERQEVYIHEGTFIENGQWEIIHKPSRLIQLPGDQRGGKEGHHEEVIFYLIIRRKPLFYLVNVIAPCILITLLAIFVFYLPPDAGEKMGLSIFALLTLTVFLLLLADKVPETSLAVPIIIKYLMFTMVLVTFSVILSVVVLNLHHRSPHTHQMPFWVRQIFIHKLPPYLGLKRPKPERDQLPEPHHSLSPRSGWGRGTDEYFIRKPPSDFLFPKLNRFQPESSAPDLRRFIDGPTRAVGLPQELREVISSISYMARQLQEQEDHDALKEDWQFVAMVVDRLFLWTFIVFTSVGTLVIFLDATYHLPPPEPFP
Sequence of UniProt P04756 (P02716 25-520, chain 3 of 4, further chain): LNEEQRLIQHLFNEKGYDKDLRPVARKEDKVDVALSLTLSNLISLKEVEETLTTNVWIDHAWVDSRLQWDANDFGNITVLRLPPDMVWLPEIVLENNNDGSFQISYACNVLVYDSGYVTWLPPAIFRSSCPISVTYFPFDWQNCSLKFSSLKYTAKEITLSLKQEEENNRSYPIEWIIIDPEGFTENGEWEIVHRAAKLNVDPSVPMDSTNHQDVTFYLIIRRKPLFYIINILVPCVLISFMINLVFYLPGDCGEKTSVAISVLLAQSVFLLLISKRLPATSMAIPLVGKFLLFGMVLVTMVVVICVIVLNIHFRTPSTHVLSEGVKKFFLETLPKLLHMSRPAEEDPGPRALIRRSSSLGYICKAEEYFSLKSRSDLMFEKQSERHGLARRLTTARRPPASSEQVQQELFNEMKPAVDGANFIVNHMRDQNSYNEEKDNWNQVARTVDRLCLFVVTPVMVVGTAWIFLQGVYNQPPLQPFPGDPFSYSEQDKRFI
Sequence of UniProt P04756 (P04760 23-519, chain 4 of 4, further chain): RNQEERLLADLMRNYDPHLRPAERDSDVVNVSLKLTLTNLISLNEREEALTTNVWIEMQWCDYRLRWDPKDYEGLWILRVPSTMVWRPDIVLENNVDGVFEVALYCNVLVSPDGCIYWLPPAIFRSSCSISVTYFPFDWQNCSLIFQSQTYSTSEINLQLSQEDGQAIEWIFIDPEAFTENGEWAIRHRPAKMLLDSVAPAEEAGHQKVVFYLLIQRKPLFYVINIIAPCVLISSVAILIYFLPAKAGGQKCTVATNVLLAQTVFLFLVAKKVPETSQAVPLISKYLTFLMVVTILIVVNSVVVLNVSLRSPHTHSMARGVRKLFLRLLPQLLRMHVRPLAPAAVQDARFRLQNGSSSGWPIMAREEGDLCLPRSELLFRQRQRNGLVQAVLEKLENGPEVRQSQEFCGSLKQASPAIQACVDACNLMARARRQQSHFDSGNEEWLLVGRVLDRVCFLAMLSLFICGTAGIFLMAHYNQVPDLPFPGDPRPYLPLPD

Binder	% of binding to β382-401 WT (% of binding to β382-401 WT) [1]	fold rapsyn associated, against AChR with non-phosphorylated β subunit [2]
GST-rapsyn (natural protein) MGQDQTKQQIEKGLQLYQSNQTEKALQVWMKVLEKGSDLVGRFRVLGCLVTAHSEMGRYKEMLKFAVVQIDTARGLEDADFLLESYLNLARSNEKLCEFHKTISYCKTCLGLPGTRAGAQLGGQVSLSMGNAFLGLSLFQKALESFEKALRYAHNNDDTMLECRVCCSLGSFYAQVKDYEKALFFPCKAAELVNDYGKGWSLKYRAMSQYHMAVAYRLLGHLGSAMECCEESMKIALQHGDRPLQALCLLCFADIHRSRGDLETAFPRYDSAMSIMTEIGNRLGQVHVLLGVAKCWMARKVQDKALDAIEKAQDLAEEVGNKLSQLKLHCLSESIYRSKGLQRELRTHVVRFHECVEETELYCGLCGESIGERNSRLQALPCSHIFHLRCLQNNGTRSCPNCRRSSMKPGFV	92	
rapsyn, endogenous in mouse myotubes (natural protein) MGQDQTKQQIEKGLQLYQSNQTEKALQVWMKVLEKGSDLVGRFRVLGCLVTAHSEMGRYKEMLKFAVVQIDTARGLEDADFLLESYLNLARSNEKLCEFHKTISYCKTCLGLPGTRAGAQLGGQVSLSMGNAFLGLSLFQKALESFEKALRYAHNNDDTMLECRVCCSLGSFYAQVKDYEKALFFPCKAAELVNDYGKGWSLKYRAMSQYHMAVAYRLLGHLGSAMECCEESMKIALQHGDRPLQALCLLCFADIHRSRGDLETAFPRYDSAMSIMTEIGNRLGQVHVLLGVAKCWMARKVQDKALDAIEKAQDLAEEVGNKLSQLKLHCLSESIYRSKGLQRELRTHVVRFHECVEETELYCGLCGESIGERNSRLQALPCSHIFHLRCLQNNGTRSCPNCRRSSMKPGFV		2.3 fold
